Laboratory results: patent US20160264649A1

Legend:
Test in all cases: cell-based or functional assay
[1] = target: HIV-1 Env of isolate MG RM-C-027 (subtype C) (HIV-1)
[2] = target: HIV-1 MGRM-A-012 Env (HIV-1)
[3] = target: HIV-1 MGRM-A-003 Env (HIV-1)
[4] = target: HIV-1 MGRM-A-002 Env (HIV-1)
[5] = target: HIV-1 MGRM-AE-004 Env (HIV-1)
[6] = target: HIV-1 Env of isolate MG RM-C-026 (subtype C) (HIV-1)
[7] = target: HIV-1 MGRM-A-007 Env (HIV-1)
[8] = target: HIV-1 MGRM-A-001 Env (HIV-1)
[9] = target: HIV-1 MGRM-AE-001 Env (HIV-1)
[10] = target: HIV-1 MGRM-A-004 Env (HIV-1)
[11] = target: HIV-1 Env of isolate MG RM-C-022 (subtype C) (HIV-1)
[12] = target: HIV-1 MGRM-AG-006 Env (HIV-1)
[13] = target: HIV-1 93WR029 Env (HIV-1)
[14] = target: HIV-1 MGRM-A-014 Env (HIV-1)
[15] = target: HIV-1 93UG077 Env (HIV-1)
[16] = target: HIV-1 MGRM-AE-005 Env (HIV-1)
[17] = target: HIV-1 MGRM-AE-008 Env (HIV-1)
[18] = target: HIV-1 Env of isolate MG RM-C-025 (subtype C) (HIV-1)
[19] = target: HIV-1 MGRM-AG-011 Env (HIV-1)
[20] = target: HIV-1 92TH021 Env (HIV-1)
[21] = target: HIV-1 94UG103 Env (HIV-1)
[22] = target: HIV-1 MGRM-A-006 Env (HIV-1)
[23] = target: HIV-1 MGRM-AG-001 Env (HIV-1)
[24] = target: HIV-1 MGRM-AG-002 Env (HIV-1)
[25] = target: HIV-1 MGRM-AG-003 Env (HIV-1)
[26] = target: HIV-1 Env of isolate MG RM-C-028 (subtype C) (HIV-1)
[27] = target: HIV-1 92WR026 Env (HIV-1)
[28] = target: HIV-1 94KE105 Env (HIV-1)
[29] = target: HIV-1 MGRM-AG-005 Env (HIV-1)
[30] = target: HIV-1 MGRM-AE-002 Env (HIV-1)
[31] = target: HIV-1 MGRM-A-005 Env (HIV-1)
[32] = target: HIV-1 MGRM-AG-013 Env (HIV-1)
[33] = target: HIV-1 MGRM-AG-008 Env (HIV-1)
[34] = target: HIV-1 MGRM-AE-003 Env (HIV-1)
[35] = target: HIV-1 92WR009 Env (HIV-1)
[36] = target: HIV-1 Env of isolate MG RM-C-024 (subtype C) (HIV-1)
[37] = target: HIV-1 92RW008 Env (HIV-1)
[38] = target: HIV-1 92UG037 Env (HIV-1)
[39] = target: HIV-1 Env of isolate MG RM-C-020 (subtype C) (HIV-1)
[40] = target: HIV-1 MGRM-A-013 Env (HIV-1)
[41] = target: HIV-1 92UG031 Env (HIV-1)
[42] = target: HIV-1 VLGCA1 Env (HIV-1)
[43] = target: HIV-1 Env of isolate MG RM-C-023 (subtype C) (HIV-1)
[44] = target: HIV-1 MGRM-A-008 Env (HIV-1)
[45] = target: HIV-1 CMU02 Env (HIV-1)
[46] = target: HIV-1 MGRM-AG-012 Env (HIV-1)
[47] = target: HIV-1 92WR024 Env (HIV-1)
[48] = target: HIV-1 MGRM-AG-009 Env (HIV-1)
[49] = target: HIV-1 92WR020 Env (HIV-1)
[50] = target: HIV-1 MGRM-A-009 Env (HIV-1)
[51] = target: HIV-1 MGRM-A-011 Env (HIV-1)
[52] = target: HIV-1 92WR021 Env (HIV-1)
[53] = target: HIV-1 Env of isolate MG RM-C-019 (subtype C) (HIV-1)
[54] = target: HIV-1 MGRM-AE-007 Env (HIV-1)
[55] = target: HIV-1 MGRM-AE-006 Env (HIV-1)
[56] = target: HIV-1 MGRM-A-010 Env (HIV-1)
[57] = target: HIV-1 Env of isolate 93TH305 (HIV-1)
[58] = target: HIV-1 Env of isolate MGRM-Chronic-B-004 (HIV-1)
[59] = target: HIV-1 Env of isolate MGRM-Chronic-B-023 (HIV-1)
[60] = target: HIV-1 Env of isolate VLGCB3 (HIV-1)
[61] = target: HIV-1 Env of isolate CAAN.A2 (HIV-1)
[62] = target: HIV-1 Env of isolate JRCSF (HIV-1) (UniProt P20871)
[63] = target: HIV-1 Env of isolate 92 BR 020 (HIV-1)
[64] = target: HIV-1 Env of isolate SF162 (HIV-1) (UniProt P19550)
[65] = target: HIV-1 Env of isolate 98IN022 (HIV-1)
[66] = target: HIV-1 Env of isolate MGRM-Chronic-B-017 (HIV-1)
[67] = target: HIV-1 Env of isolate 97ZA012 (HIV-1)
[68] = target: HIV-1 Env of isolate APV_17 (HIV-1)
[69] = target: HIV-1 Env of isolate MGRM-Chronic-B-020 (HIV-1)
[70] = target: HIV-1 Env of isolate SC422661.8 (HIV-1)
[71] = target: HIV-1 Env of isolate 6535.3 (HIV-1)
[72] = target: HIV-1 Env of isolate JRFL (HIV-1)
[73] = target: HIV-1 Env of isolate TRO.11 (HIV-1)
[74] = target: HIV-1 Env of isolate APV_13 (HIV-1)
[75] = target: HIV-1 Env of isolate MGRM-Chronic-B-003 (HIV-1)
[76] = target: HIV-1 Env of isolate MGRM-Chronic-B-001 (HIV-1)
[77] = target: HIV-1 Env of isolate MGRM-Chronic-B-010 (HIV-1)
[78] = target: HIV-1 Env of isolate MGRM-Chronic-B-011 (HIV-1)
[79] = target: HIV-1 Env of isolate QH0692.42 (HIV-1)
[80] = target: HIV-1 Env of isolate TRJ04551.58 (HIV-1)
[81] = target: HIV-1 Env of isolate APV_6 (HIV-1)
[82] = target: HIV-1 Env of isolate PVO.4 (HIV-1)
[83] = target: HIV-1 Env of isolate MGRM-Chronic-B-018 (HIV-1)
[84] = target: HIV-1 Env of isolate THR0.18 (HIV-1)
[85] = target: HIV-1 Env of isolate MGRM-Chronic-B-024 (HIV-1)
[86] = target: HIV-1 Env of isolate NL43 (HIV-1)
[87] = target: HIV-1 Env of isolate MGRM-Chronic-B-002 (HIV-1)
[88] = target: HIV-1 Env of isolate MGRM-Chronic-B-012 (HIV-1)
[89] = target: HIV-1 Env of isolate 93MW959 (HIV-1)
[90] = target: HIV-1 Env of isolate MGRM-Chronic-B-008 (HIV-1)
[91] = target: HIV-1 Env of isolate 93IN905 (HIV-1)

Sequence of 5345_I01 (PGT-137) (antibody) (VH): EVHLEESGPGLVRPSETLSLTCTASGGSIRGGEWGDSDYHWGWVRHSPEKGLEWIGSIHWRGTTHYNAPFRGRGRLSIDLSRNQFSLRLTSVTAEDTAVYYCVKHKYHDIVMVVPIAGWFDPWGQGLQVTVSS
Sequence of 5345_I01 (PGT-137) (antibody) (VL): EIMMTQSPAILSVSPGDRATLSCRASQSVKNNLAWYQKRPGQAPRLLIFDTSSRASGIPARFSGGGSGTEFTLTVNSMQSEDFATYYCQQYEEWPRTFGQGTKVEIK

With 5345_I01 (PGT-137) (antibody) the IC50 [1] was > 50 µg/mL, the IC50 [2] was > 50 µg/mL and the IC50 [3] was > 50 µg/mL. For the same substance, the IC50 [4] was > 50 µg/mL, the IC50 [5] was > 50 µg/mL and the IC50 [6] was 0.011 µg/mL. For the same substance, the IC50 [7] was > 50 µg/mL, the IC50 [8] was > 50 µg/mL and the IC50 [9] was > 50 µg/mL. The IC50 [10] was > 50 µg/mL, the IC50 [11] was > 50 µg/mL and the IC50 [12] was 28.3 µg/mL. For the same substance, the IC50 [13] was > 50 µg/mL, the IC50 [14] was 18.6 µg/mL and the IC50 [15] was > 50 µg/mL. The IC50 [16] was > 50 µg/mL, the IC50 [17] was > 50 µg/mL and the IC50 [18] was > 50 µg/mL. For the same substance, the IC50 [19] was > 50 µg/mL, the IC50 [20] was > 50 µg/mL and the IC50 [21] was > 50 µg/mL. For the same substance, the IC50 [22] was > 50 µg/mL, the IC50 [23] was > 50 µg/mL and the IC50 [24] was > 50 µg/mL. The IC50 [25] was > 50 µg/mL, the IC50 [26] was > 50 µg/mL and the IC50 [27] was 0.092 µg/mL. For the same substance, the IC50 [28] was 18.5 µg/mL, the IC50 [29] was > 50 µg/mL and the IC50 [30] was > 50 µg/mL. The IC50 [31] was > 50 µg/mL, the IC50 [32] was > 50 µg/mL and the IC50 [33] was > 50 µg/mL. For the same substance, the IC50 [34] was > 50 µg/mL, the IC50 [35] was > 50 µg/mL and the IC50 [36] was > 50 µg/mL. The IC50 [37] was 0.148 µg/mL, the IC50 [38] was > 50 µg/mL and the IC50 [39] was > 50 µg/mL. The IC50 [40] was 49.2 µg/mL, the IC50 [41] was > 50 µg/mL and the IC50 [42] was > 50 µg/mL. The IC50 [43] was 0.23 µg/mL, the IC50 [44] was > 50 µg/mL and the IC50 [45] was > 50 µg/mL. For the same substance, the IC50 [46] was > 50 µg/mL, the IC50 [47] was > 50 µg/mL and the IC50 [48] was > 50 µg/mL. For the same substance, the IC50 [49] was 0.005 µg/mL, the IC50 [50] was > 50 µg/mL and the IC50 [51] was > 50 µg/mL. For the same substance, the IC50 [52] was 3.52 µg/mL, the IC50 [53] was > 50 µg/mL and the IC50 [54] was > 50 µg/mL. The IC50 [55] was > 50 µg/mL and the IC50 [56] was > 50 µg/mL.
In the case of PGT-128 monoclonal antibody (5114_A19), the neutralization IC50 [57] is reported as 0.006 µg/mL, the neutralization IC50 [58] is reported as 0.009 µg/mL and the neutralization IC50 [59] is reported as > 50 µg/mL. It also gave a neutralization IC50 [60] of 0.012 µg/mL, a neutralization IC50 [61] of 1.48 µg/mL and a neutralization IC50 [62] of 0.003 µg/mL. The neutralization IC50 [63] was 0.009 µg/mL, the neutralization IC50 [64] was 0.007 µg/mL and the neutralization IC50 [65] was 0.014 µg/mL. For the same substance, the neutralization IC50 [66] was > 50 µg/mL, the neutralization IC50 [67] was 0.019 µg/mL and the neutralization IC50 [68] was 0.016 µg/mL. The neutralization IC50 [69] was 0.007 µg/mL, the neutralization IC50 [70] was 1.58 µg/mL and the neutralization IC50 [71] was 0.011 µg/mL. It also gave a neutralization IC50 [72] of 0.007 µg/mL, a neutralization IC50 [73] of 0.018 µg/mL and a neutralization IC50 [74] of 0.008 µg/mL. For the same substance, the neutralization IC50 [75] was 0.007 µg/mL, the neutralization IC50 [76] was > 50 µg/mL and the neutralization IC50 [77] was 0.004 µg/mL. The neutralization IC50 [78] was 0.02 µg/mL, the neutralization IC50 [79] was 0.029 µg/mL and the neutralization IC50 [80] was 0.019 µg/mL. The neutralization IC50 [81] was 0.007 µg/mL, the neutralization IC50 [82] was 0.005 µg/mL and the neutralization IC50 [83] was 0.02 µg/mL. The neutralization IC50 [84] was > 50 µg/mL, the neutralization IC50 [85] was > 50 µg/mL and the neutralization IC50 [86] was > 50 µg/mL. It also gave a neutralization IC50 [87] of 0.036 µg/mL, a neutralization IC50 [88] of 0.026 µg/mL and a neutralization IC50 [89] of 0.045 µg/mL. For the same substance, the neutralization IC50 [90] was 0.143 µg/mL and the neutralization IC50 [91] was 0.009 µg/mL.
